# Numbering of substitutions follows the chain as printed.
# T1: StFliD_(1–467) L443R mutant (Salmonella Typhimurium, UniProt P16328 1-467, L443R)
# T1 construct: FliD of Salmonella Typhimurium, residues 1–467, with L443R; Monomer by SEC-MALS; also called StFliD L443R; FliD (L443R)
# T1 sequence: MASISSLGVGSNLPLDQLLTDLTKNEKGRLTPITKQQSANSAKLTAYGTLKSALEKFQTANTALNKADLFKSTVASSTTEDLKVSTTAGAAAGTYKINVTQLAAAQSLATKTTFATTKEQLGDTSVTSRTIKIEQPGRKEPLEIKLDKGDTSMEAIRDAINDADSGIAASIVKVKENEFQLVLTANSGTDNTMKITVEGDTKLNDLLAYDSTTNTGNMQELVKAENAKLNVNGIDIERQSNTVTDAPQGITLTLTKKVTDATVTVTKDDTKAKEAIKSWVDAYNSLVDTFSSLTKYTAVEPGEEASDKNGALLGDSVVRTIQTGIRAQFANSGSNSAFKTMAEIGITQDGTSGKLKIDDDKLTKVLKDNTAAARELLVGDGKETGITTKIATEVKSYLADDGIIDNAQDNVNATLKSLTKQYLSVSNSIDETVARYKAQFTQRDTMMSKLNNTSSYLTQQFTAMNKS
# B1: StFliT_(1–94), C-terminus-truncated FliT from Salmonella Typhimurium (domain or fragment)
# chain: MTSTVEFINRWQRIALLSQSLLELAQRGEWDLLLQQEVSYLQSIETVMEKQTPPGITRSIQDMVAGYIKQTLDNEQLLKGLLQQRLDELSSLIG
# notes: FliT (flagellar export chaperone) of Salmonella Typhimurium, residues 1–94; At the glutathione-Sepharose step of the co-purification the GST tag was still on; it was cut by TEV protease before ion exchange and gel filtration; source: E. coli BL21(DE3); purified alone (glutathione-Sepharose, TEV cleavage, gel filtration) for ITC; co-expressed with StFliD constructs and co-purified for the …
# B2: StFliD_(1–467), full-length FliD from Salmonella Typhimurium, wild type (natural protein)
# chain: T1 sequence with R443L
# notes: FliD (HAP2, flagellar filament capping protein) of Salmonella Typhimurium, residues 1–467; also called StFliD WT; HAP2; source: E. coli BL21(DE3); co-expressed with StFliT 1–94 and co-purified (glutathione-Sepharose, TEV, Hitrap Q, Superdex 200) for the complex
# B3: StFliD_(1–300) (domain or fragment)
# chain: MASISSLGVGSNLPLDQLLTDLTKNEKGRLTPITKQQSANSAKLTAYGTLKSALEKFQTANTALNKADLFKSTVASSTTEDLKVSTTAGAAAGTYKINVTQLAAAQSLATKTTFATTKEQLGDTSVTSRTIKIEQPGRKEPLEIKLDKGDTSMEAIRDAINDADSGIAASIVKVKENEFQLVLTANSGTDNTMKITVEGDTKLNDLLAYDSTTNTGNMQELVKAENAKLNVNGIDIERQSNTVTDAPQGITLTLTKKVTDATVTVTKDDTKAKEAIKSWVDAYNSLVDTFSSLTKYTAVE
# notes: FliD of Salmonella Typhimurium, residues 1–300; Dimer at 100 μM by SEC-MALS; source: cloned into pRSF-duet
# B4: StFliD_(45–467) (domain or fragment)
# chain: TAYGTLKSALEKFQTANTALNKADLFKSTVASSTTEDLKVSTTAGAAAGTYKINVTQLAAAQSLATKTTFATTKEQLGDTSVTSRTIKIEQPGRKEPLEIKLDKGDTSMEAIRDAINDADSGIAASIVKVKENEFQLVLTANSGTDNTMKITVEGDTKLNDLLAYDSTTNTGNMQELVKAENAKLNVNGIDIERQSNTVTDAPQGITLTLTKKVTDATVTVTKDDTKAKEAIKSWVDAYNSLVDTFSSLTKYTAVEPGEEASDKNGALLGDSVVRTIQTGIRAQFANSGSNSAFKTMAEIGITQDGTSGKLKIDDDKLTKVLKDNTAAARELLVGDGKETGITTKIATEVKSYLADDGIIDNAQDNVNATLKSLTKQYLSVSNSIDETVARYKAQFTQLDTMMSKLNNTSSYLTQQFTAMNKS
# notes: FliD of Salmonella Typhimurium, residues 45–467
# B5: StFliD_(401–467) (domain or fragment)
# chain: DGIIDNAQDNVNATLKSLTKQYLSVSNSIDETVARYKAQFTQLDTMMSKLNNTSSYLTQQFTAMNKS
# notes: FliD of Salmonella Typhimurium, residues 401–467; The eluate was cleaved by TEV protease; also called C-terminal helix of StFliD; source: E. coli BL21(DE3), co-expressed with StFliT 1–94, co-purified (glutathione-Sepharose, TEV, Hitrap Q, Superdex 200)
# Columns and labels:
# [1] = target: B2; test: ITC; 170 μM StFliT 1–94 injected (2.5 μL, every 200 s) into 26 μM StFliD in the cell; 298 K; buffer A (20 mM Tris-HCl pH 8.0, 200 mM NaCl); details: both partners purified
# [2] = target: T1, StFliD_(1–467) L443R mutant; test: as above; details: both partners purified
# [3] = target: B1; test: SEC-MALS; samples at 10 μM (Fig. 2c); Superdex 200 10/300 GL in buffer A (20 mM Tris-HCl pH 8.0, 200 mM NaCl), 0.4 mL/min; details: both partners purified
# [4] = target: B1; test: SEC-MALS; samples at 100 μM (Fig. 2c); Superdex 200 10/300 GL in buffer A (20 mM Tris-HCl pH 8.0, 200 mM NaCl), 0.4 mL/min; details: both partners purified
# [5] = target: the molecule itself; test: as above
# [6] = target: the molecule itself; test: SAXS; purified proteins and co-purified complexes, 1.0–10.0 mg/mL, 4 °C; ab initio envelopes (DAMMIF)
# [7] = target: B1; test: SEC-MALS; co-purified complexes (Fig. 1b), concentration not given; Superdex 200 10/300 GL in buffer A (20 mM Tris-HCl pH 8.0, 200 mM NaCl), 0.4 mL/min; details: both partners purified
binder,measurement,setting,value
B1,Kd,[1],0.2351 ± 0.0008 µM
same,Kd,[2],3.01 ± 0.1 µM
B2,stoichiometry N,[3],1 StFliD per StFliT
same,stoichiometry N,[4],1 StFliD per StFliT (2:2)
B3,stoichiometry N,[5],2
B4,binding result,[6],binds
B5,stoichiometry N,[7],1 StFliD per StFliT
